Molecular target: human 4-1BB expressed with a C-terminal myc-myc-hexahistidine tag (h4-1BB.mmH) (human)
Test: blocking ELISA, 0.25 nM h4-1BB-mmh binding to coated 6His-Flag-h4-1BBL

human 4-1BB expressed with a C-terminal myc-myc-hexahistidine tag (h4-1BB.mmH) (human), sequence (chain, as listed by the source limits assumed): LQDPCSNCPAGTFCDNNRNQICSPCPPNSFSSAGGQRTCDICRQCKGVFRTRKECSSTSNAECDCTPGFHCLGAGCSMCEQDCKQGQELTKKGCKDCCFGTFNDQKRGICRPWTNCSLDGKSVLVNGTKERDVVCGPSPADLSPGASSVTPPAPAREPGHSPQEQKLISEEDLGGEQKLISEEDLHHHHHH

Substance | % Blocking at 100 nM mAb [%]
Isotype Control 1 (antibody) | -8
Isotype Control 2 (antibody) | -11

Reference: patent US20250043017A1
